Kd data for 18 molecules are collected here from paper PMC4081072, “Structure and semi-sequence-specific RNA binding of Nrd1”.

Series [1] has as its target T1, Nrd1 307-491 WT (Saccharomyces cerevisiae, UniProt P53617 307-491).
T1 sequence: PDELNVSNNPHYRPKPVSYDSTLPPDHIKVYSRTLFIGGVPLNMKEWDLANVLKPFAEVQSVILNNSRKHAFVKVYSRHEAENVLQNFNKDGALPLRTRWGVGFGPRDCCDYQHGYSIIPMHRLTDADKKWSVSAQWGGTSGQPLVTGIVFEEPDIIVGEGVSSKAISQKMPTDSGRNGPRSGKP
The series can be described thus: fluorescence anisotropy; FA: 10 nM RNA, 50 mM sodium phosphate pH 8, 150 mM NaCl, 10 mM beta-mercaptoethanol, 20 C (protein stock in 300 mM NaCl); NMR: same buffer with 300 mM NaCl, 20. Conditions: protein: recombinant, tags: C-terminal His6. On the technique in general: Fluorescence polarisation rises when a labelled molecule tumbles more slowly, as on binding a larger partner.

Series [2] has as its target T1, Nrd1 307-491 WT. Put plainly: fluorescence anisotropy; prolonged incubation between aliquots; FA: 10 nM RNA, 50 mM sodium phosphate pH 8, 150 mM NaCl, 10 mM beta-mercaptoethanol, 20 C (protein stock in 300 mM NaCl); NMR: same buffer with 300 mM NaCl, 20. To be noted: protein: recombinant; tags: C-terminal His6; label: 5' fluorescein or TAMRA (FA); unlabeled (NMR); may form quadruplex when free.

The target of a further series is T2, Nrd1 307-491 R429D (Saccharomyces cerevisiae, UniProt P53617 307-491, R429D).
T2 sequence: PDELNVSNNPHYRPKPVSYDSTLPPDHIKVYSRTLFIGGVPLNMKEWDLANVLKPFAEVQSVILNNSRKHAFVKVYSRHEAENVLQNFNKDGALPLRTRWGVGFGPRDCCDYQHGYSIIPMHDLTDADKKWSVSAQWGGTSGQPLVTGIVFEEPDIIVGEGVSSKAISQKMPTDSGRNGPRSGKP
Put plainly: fluorescence anisotropy; FA: 10 nM RNA, 50 mM sodium phosphate pH 8, 150 mM NaCl, 10 mM beta-mercaptoethanol, 20 C (protein stock in 300 mM NaCl); NMR: same buffer with 300 mM NaCl, 20. To be noted: protein: recombinant; tags: C-terminal His6; label: 5' fluorescein or TAMRA (FA); unlabeled (NMR).

Another series has as its target T3, Nrd1 307-491 T431R (Saccharomyces cerevisiae, UniProt P53617 307-491, T431R).
T3 sequence: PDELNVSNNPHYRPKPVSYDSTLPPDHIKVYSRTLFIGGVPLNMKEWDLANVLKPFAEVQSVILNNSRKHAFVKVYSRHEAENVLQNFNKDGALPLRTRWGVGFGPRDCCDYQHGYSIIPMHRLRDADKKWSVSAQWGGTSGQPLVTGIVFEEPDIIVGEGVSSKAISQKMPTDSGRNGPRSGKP
The series is described as above. Conditions: protein: recombinant; tags: C-terminal His6; label: 5' fluorescein or TAMRA (FA); unlabeled (NMR).

Another series deals with T4, Nrd1 307-491 K435D (Saccharomyces cerevisiae, UniProt P53617 307-491, K435D).
T4 sequence: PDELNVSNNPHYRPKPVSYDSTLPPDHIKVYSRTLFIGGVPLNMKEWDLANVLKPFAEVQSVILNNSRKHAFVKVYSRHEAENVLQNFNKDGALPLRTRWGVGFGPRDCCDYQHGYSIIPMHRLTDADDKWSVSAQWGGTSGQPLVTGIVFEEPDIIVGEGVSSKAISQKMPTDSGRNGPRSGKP
The description is as above. Conditions: protein: recombinant; tags: C-terminal His6; label: 5' fluorescein or TAMRA (FA); unlabeled (NMR).

In another series the target is T5, Nrd1 307-491 H376A (Saccharomyces cerevisiae, UniProt P53617 307-491, H376A).
T5 sequence: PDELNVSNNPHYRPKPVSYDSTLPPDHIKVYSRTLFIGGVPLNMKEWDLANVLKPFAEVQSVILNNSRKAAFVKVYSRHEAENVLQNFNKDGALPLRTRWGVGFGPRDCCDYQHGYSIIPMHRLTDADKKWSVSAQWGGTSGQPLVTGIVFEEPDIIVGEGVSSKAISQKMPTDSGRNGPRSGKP
The description is as above. To be noted: protein: recombinant; tags: C-terminal His6; label: 5' fluorescein or TAMRA (FA); unlabeled (NMR).

For another series, the target named is T6, Nrd1 307-491 F342A (Saccharomyces cerevisiae, UniProt P53617 307-491, F342A).
T6 sequence: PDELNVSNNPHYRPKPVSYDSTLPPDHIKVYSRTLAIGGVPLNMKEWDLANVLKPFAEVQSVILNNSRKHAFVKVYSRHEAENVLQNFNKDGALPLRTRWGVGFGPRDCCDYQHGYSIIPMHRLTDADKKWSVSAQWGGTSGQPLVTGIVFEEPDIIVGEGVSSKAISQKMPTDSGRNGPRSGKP
The description is as above. Conditions: protein: recombinant; tags: C-terminal His6; label: 5' fluorescein or TAMRA (FA); unlabeled (NMR).

The target of another series is T7, Nrd1 307-491 G409A (Saccharomyces cerevisiae, UniProt P53617 307-491, G409A).
T7 sequence: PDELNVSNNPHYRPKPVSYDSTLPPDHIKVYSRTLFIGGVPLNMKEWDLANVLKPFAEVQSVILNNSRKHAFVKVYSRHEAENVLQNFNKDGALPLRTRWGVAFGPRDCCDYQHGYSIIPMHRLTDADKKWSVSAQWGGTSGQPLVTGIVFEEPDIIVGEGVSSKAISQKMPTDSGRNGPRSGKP
The series is described as above. Conditions: protein: recombinant; tags: C-terminal His6; label: 5' fluorescein or TAMRA (FA); unlabeled (NMR).

The target in the next series is T8, Nrd1 307-491 D417A (Saccharomyces cerevisiae, UniProt P53617 307-491, D417A).
T8 sequence: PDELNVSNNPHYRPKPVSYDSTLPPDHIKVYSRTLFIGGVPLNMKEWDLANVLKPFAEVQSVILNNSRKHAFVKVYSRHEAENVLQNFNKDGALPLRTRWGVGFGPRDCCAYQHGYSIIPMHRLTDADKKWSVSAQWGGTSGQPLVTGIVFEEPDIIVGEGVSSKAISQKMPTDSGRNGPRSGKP
The series is described as above. To be noted: protein: recombinant; tags: C-terminal His6; label: 5' fluorescein or TAMRA (FA); unlabeled (NMR).

For a further series, the target named is T9, Nrd1 307-491 F378A (Saccharomyces cerevisiae, UniProt P53617 307-491, F378A).
T9 sequence: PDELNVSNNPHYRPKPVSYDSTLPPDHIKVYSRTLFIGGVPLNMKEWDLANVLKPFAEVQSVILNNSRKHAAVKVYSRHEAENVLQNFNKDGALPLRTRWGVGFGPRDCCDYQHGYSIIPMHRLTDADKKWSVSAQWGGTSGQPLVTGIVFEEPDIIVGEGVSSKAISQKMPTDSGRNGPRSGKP
The description is as above. To be noted: protein: recombinant; tags: C-terminal His6; label: 5' fluorescein or TAMRA (FA); unlabeled (NMR).

What is called Kd is the concentration at which binding is half-saturated. With AGCGUGAAUUAAGAGCGUAUAUAUAA (ssRNA) [win78dNrd1dNab3], the Kd with Nrd1 307-491 WT [1] (label: 5' fluorescein or TAMRA) came to 7.9 ± 0.3 µM.

Regarding UGGUGGU (ssRNA), the Kd in the series with Nrd1 307-491 WT [1] (label: 5' fluorescein or TAMRA) is 6.8 ± 0.6 µM.

As for CACACAC (ssRNA), the Kd with Nrd1 307-491 WT [1] (label: 5' fluorescein or TAMRA) worked out at 108 ± 4 µM.

On to GGGGGGG (ssRNA) [G7], for which the Kd with Nrd1 307-491 WT [2] was 5.7 ± 1.2 µM.

For GUUGUUG (ssRNA), in the series with Nrd1 307-491 WT [1] (label: 5' fluorescein or TAMRA), the Kd came out at 13 ± 0.7 µM.

Consider CCCCUGAAUUAAGCCCCCCCCCCCCC (ssRNA) [win78polyC], for which the Kd with Nrd1 307-491 WT [1] (label: 5' fluorescein or TAMRA) was found to be 7.2 ± 0.5 µM.

With AUUAUUA (ssRNA), in the series with Nrd1 307-491 WT [1] (label: 5' fluorescein or TAMRA), the dissociation constant Kd stood at 14.8 ± 0.4 µM.

GUAAUGAAUUAAGUCUUGAUAUAUAA (ssRNA) [win78wt]: the Kd with Nrd1 307-491 WT [1] (label: 5' fluorescein or TAMRA) was found to be 1.5 ± 0.1 µM.

With AUAUAUA (ssRNA), the Kd in the series with Nrd1 307-491 WT [1] (label: 5' fluorescein or TAMRA) stood at 11.3 ± 0.5 µM.

In the case of AAAAAAA (ssRNA) [A7], the dissociation constant (Kd) with Nrd1 307-491 WT [1] (label: 5' fluorescein or TAMRA) came out at 32.1 ± 0.9 µM.

As to UGGA (ssRNA), the dissociation constant (Kd) in the series with Nrd1 307-491 WT [1] (label: 5' fluorescein or TAMRA) stood at 94.1 ± 3.9 µM.

Turning to AGCGUGAAUUAAGUCUUGAUAUAUAA (ssRNA) [win78dNrd1], in the series with Nrd1 307-491 WT [1] (label: 5' fluorescein or TAMRA), the Kd is 2.5 ± 0.2 µM.

Consider UUUUUUU (ssRNA) [U7], for which the Kd in the series with Nrd1 307-491 WT [1] (label: 5' fluorescein or TAMRA) worked out at 69.8 ± 3.2 µM.

Turning to UCUUG (ssRNA), the Kd in the series with Nrd1 307-491 WT [1] (label: 5' fluorescein or TAMRA) is 41.1 ± 2.7 µM.

In the case of GCGGGCG (ssRNA), the Kd in the series with Nrd1 307-491 WT [1] (label: 5' fluorescein or TAMRA) came out at 13.2 ± 0.5 µM.

As for AGCGUGAAUUAAGUCUUGCACACACA (ssRNA) [win78dNrd1dAUrichCA], in the series with Nrd1 307-491 WT [1] (label: 5' fluorescein or TAMRA), the equilibrium dissociation constant (Kd) came out at 5.4 ± 0.2 µM.

Turning to GCGGGGC (ssRNA), the equilibrium dissociation constant (Kd) in the series with Nrd1 307-491 R429D was 60.1 ± 3.5 µM; with Nrd1 307-491 T431R it was 48 ± 2.9 µM; with Nrd1 307-491 K435D, 50.5 ± 10.8 µM; with Nrd1 307-491 H376A, 37.5 ± 3.7 µM; with Nrd1 307-491 F342A, 29.5 ± 4 µM; in the series with Nrd1 307-491 G409A it was 30.3 ± 3.9 µM. For the same molecule, the dissociation constant (Kd) with Nrd1 307-491 D417A came out at 31.7 ± 6 µM; with Nrd1 307-491 WT [1] (label: 5' fluorescein or TAMRA (FA), unlabeled (NMR)), 9.8 ± 0.3 µM; with Nrd1 307-491 F378A, 73.4 ± 10.7 µM.

Take CAGCGUC (ssRNA): the dissociation constant (Kd) with Nrd1 307-491 WT [1] (label: 5' fluorescein or TAMRA) worked out at 37.7 ± 1.1 µM.
